Legend:
[1] = biological target: Rac1, produced as GST-fusion protein in E. coli BL21 [GST: P08515]
[2] = biological target: cdc42, produced as GST-fusion protein in E. coli BL21 [GST: P08515]
[3] = biological target: RhoA, produced as GST-fusion protein in E. coli BL21 [GST: P08515]

B1: catalytic domain of wild type Tagap1, produced as GST-fusion protein in E. coli BL21 (protein)
chain: QPLSIICGENDTLPRPIQDILTILCLKGPSTEGIFRKAASEKARKELKEGLNCGVSVNLKQLPVHLLAVVFKDFLRGIPLKLLSCDLFEDWMGALEKPTEEDRIEALKQVAGGLPRPNLLLLRHLLYVLHLISKNAEVNKMDSSNLAICIGPNMLTLKNDQSLSFQAQKDLNNKVKILVEFLIDNCFEIF
For B1, the “GTPase activity of Rac1 (in vitro GAP assay)” value [1] was “hardly (Rac1) stimulated”, the “GTPase activity of Cdc42 (in vitro GAP assay)” value [2] was “only mildly (Cdc42) ... stimulated” and the “GTPase activity of RhoA (GAP-activity assay, FIG. 2e)” value [3] was “Tagap1 enhances the GTPase activity of RhoA”. The “GTPase activity of RhoA (in vitro GAP assay)” value [3] was “the GTPase activity of RhoA was strongly enhanced by the GAP domain of Tagap1”.
